Test results from patent publication US6900177.
Non-standard residues stand in square brackets, D forms with d. No end group written: not given here.

Molecular target: T1, lecithin:cholesterol acyltransferase (LCAT), purified from human plasma (human, UniProt P04180 25-440)
T1 sequence (looked up): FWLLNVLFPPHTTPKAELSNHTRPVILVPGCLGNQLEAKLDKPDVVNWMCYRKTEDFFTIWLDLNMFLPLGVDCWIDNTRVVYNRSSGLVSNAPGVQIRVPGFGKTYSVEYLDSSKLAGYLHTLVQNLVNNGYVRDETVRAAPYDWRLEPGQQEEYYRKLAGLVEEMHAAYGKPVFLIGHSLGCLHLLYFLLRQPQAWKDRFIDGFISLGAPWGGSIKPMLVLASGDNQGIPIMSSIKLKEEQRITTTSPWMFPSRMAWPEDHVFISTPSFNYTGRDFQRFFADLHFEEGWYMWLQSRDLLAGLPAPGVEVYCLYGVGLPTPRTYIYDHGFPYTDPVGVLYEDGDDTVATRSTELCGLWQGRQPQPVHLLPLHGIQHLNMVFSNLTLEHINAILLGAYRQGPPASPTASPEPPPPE
Assay: cell-based or functional assay

[dP][dV]LDLFRELLNELLEALKQKLK [peptide 48]
ACTIVITY (%) LCAT: 22%
